Results on 25 sequences are retold here after the supplement of paper PMC9233669.

For one series, the system named is biotinyl-Leu-oxazolone. Nature of the series: self-aminoacylation, catalytic enhancement (BLO) (fold over background); higher = more active; k-Seq, kA / k0A0; sequences stand for … in GGGAAUGGAUCCACAUCUACGAAUUC…UUCACUGCAGACUUGACGAAGCUG
The method in brief:
(§1)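 Working in 50 μL HEPES/NaCl/KCl/MgCl2/CaCl2 buffer with 5% acetonitrile at pH 6.9–7.0, mutagenized RNA pools (0.43 μM; 21-nt variable region) were reacted with 2–1250 μM of each biotinyl-aminoacyl-oxazolone for 90 minutes at room temperature. Streptavidin capture followed, with quantification by triplicate qPCR and Illumina sequencing. Catalytic enhancement is reported as median kA over the uncatalyzed rate, the low-activity peak of a bimodal Gaussian fit to the data.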

In another series the test system is biotinyl-Trp-oxazolone. The series is described as follows: self-aminoacylation, catalytic enhancement (BWO) (fold over background); higher = more active; k-Seq, kA / k0A0; sequences stand for … in GGGAAUGGAUCCACAUCUACGAAUUC…UUCACUGCAGACUUGACGAAGCUG
The essentials: as §1

The test system of a further series is biotinyl-Val-oxazolone. The series is described as follows: self-aminoacylation, catalytic enhancement (BVO) (fold over background); higher = more active; k-Seq, kA / k0A0; sequences stand for … in GGGAAUGGAUCCACAUCUACGAAUUC…UUCACUGCAGACUUGACGAAGCUG
The essentials:
as §1

For another series, the system named is biotinyl-Met-oxazolone. Nature of the series: self-aminoacylation, catalytic enhancement (BMO) (fold over background); higher = more active; k-Seq, kA / k0A0; sequences stand for … in GGGAAUGGAUCCACAUCUACGAAUUC…UUCACUGCAGACUUGACGAAGCUG
The essentials:
as §1

The next series concerns biotinyl-Phe-oxazolone. The series is described as follows: self-aminoacylation, catalytic enhancement (BFO) (fold over background); higher = more active; k-Seq, kA / k0A0; sequences stand for … in GGGAAUGGAUCCACAUCUACGAAUUC…UUCACUGCAGACUUGACGAAGCUG
The method in brief: as §1

The next series deals with biotinyl-Ile-oxazolone. Nature of the series: self-aminoacylation, catalytic enhancement (BIO) (fold over background); higher = more active; k-Seq, kA / k0A0; sequences stand for … in GGGAAUGGAUCCACAUCUACGAAUUC…UUCACUGCAGACUUGACGAAGCUG
The essentials:
as §1

This sample holds only a part of the variants without activity.

“CUACUUCAUACAUUCGGUCUG [Fam1A.1 aminoacylation ribozyme variant]”: the self-aminoacylation in the series on biotinyl-Leu-oxazolone worked out at 1.04; with biotinyl-Trp-oxazolone, 0.96; in the series on biotinyl-Val-oxazolone, 0.965; in the series on biotinyl-Met-oxazolone, 0.894; in the series on biotinyl-Phe-oxazolone, 1.05; in the series with biotinyl-Ile-oxazolone, 0.955.

For “GAGUUAGCUAAUAGUCGCAAG [Fam3.1 aminoacylation ribozyme variant]”, the self-aminoacylation was determined as 2.12 with biotinyl-Leu-oxazolone; 2.62 in the series with biotinyl-Trp-oxazolone; 1.64 in the series on biotinyl-Val-oxazolone; 1.5 with biotinyl-Met-oxazolone; 2.62 in the series on biotinyl-Phe-oxazolone; 2.14 with biotinyl-Ile-oxazolone.

In the case of “AAGUUUGCUCAUAGUCCCAAG [Fam3.1 aminoacylation ribozyme variant]”, the self-aminoacylation is 0.902 with biotinyl-Leu-oxazolone; 0.793 in the series on biotinyl-Trp-oxazolone; 1.06 with biotinyl-Val-oxazolone; 0.856 in the series with biotinyl-Met-oxazolone; 1.29 with biotinyl-Phe-oxazolone; 0.902 with biotinyl-Ile-oxazolone.

“CUACCUCAAAAAAUCGGUCUG [Fam1A.1 aminoacylation ribozyme variant]”: the self-aminoacylation in the series on biotinyl-Leu-oxazolone worked out at 1.49; in the series with biotinyl-Trp-oxazolone it was 1.3; with biotinyl-Val-oxazolone it was 1.01; in the series on biotinyl-Met-oxazolone it was 1.41; with biotinyl-Phe-oxazolone, 1.28; with biotinyl-Ile-oxazolone it was 1.02.

Regarding “AUUCACCUCGGUCAUCGGGUU [Fam2.2 aminoacylation ribozyme variant]”, the self-aminoacylation in the series on biotinyl-Leu-oxazolone turned out to be 2.47; with biotinyl-Trp-oxazolone it was 2.53; in the series with biotinyl-Val-oxazolone, 2.41; with biotinyl-Met-oxazolone it was 2.44; in the series with biotinyl-Phe-oxazolone, 13.3; in the series with biotinyl-Ile-oxazolone it was 2.15.

As to “CUACUUCAAACAAUCCGUCCG [Fam1A.1 aminoacylation ribozyme variant]”, the self-aminoacylation in the series on biotinyl-Leu-oxazolone was 0.927; with biotinyl-Trp-oxazolone, 0.751; in the series with biotinyl-Val-oxazolone, 0.903; in the series with biotinyl-Met-oxazolone, 0.708; in the series on biotinyl-Phe-oxazolone, 0.694; in the series on biotinyl-Ile-oxazolone, 0.825.

For the sequence “CCACACUUCGAGCAUUCGGUC [Fam1B.1 aminoacylation ribozyme variant]”, the self-aminoacylation was found to be 1.72 in the series with biotinyl-Leu-oxazolone; 1.54 in the series with biotinyl-Trp-oxazolone; 2.2 in the series on biotinyl-Val-oxazolone; 1.67 with biotinyl-Met-oxazolone; 1.18 with biotinyl-Phe-oxazolone; 1.97 with biotinyl-Ile-oxazolone.

Turning to “CUAUUUCAAACAAUUGGUCUG [Fam1A.1 aminoacylation ribozyme variant]”, the self-aminoacylation is 0.929 in the series with biotinyl-Leu-oxazolone; 0.736 with biotinyl-Trp-oxazolone; 0.873 with biotinyl-Val-oxazolone; 0.994 in the series on biotinyl-Met-oxazolone; 0.87 in the series with biotinyl-Phe-oxazolone; 1.01 in the series on biotinyl-Ile-oxazolone.

In the case of “AUUACCCUGGUCACCGAGUGU [Fam2.1 aminoacylation ribozyme variant]”, the self-aminoacylation with biotinyl-Leu-oxazolone is 5.37; with biotinyl-Trp-oxazolone, 5.42; with biotinyl-Val-oxazolone it was 2.55; in the series with biotinyl-Met-oxazolone, 4.97; with biotinyl-Phe-oxazolone, 16.6; in the series on biotinyl-Ile-oxazolone it was 2.65.

In the case of “AUUGCCCUCGUCAUCGAGUGA [Fam2.1 aminoacylation ribozyme variant]”, the self-aminoacylation with biotinyl-Leu-oxazolone was found to be 3.58; in the series with biotinyl-Trp-oxazolone, 3.9; in the series on biotinyl-Val-oxazolone, 2.08; in the series on biotinyl-Met-oxazolone it was 3.34; in the series with biotinyl-Phe-oxazolone, 17.4; with biotinyl-Ile-oxazolone, 2.21.

As to “UAGUCUGCUAAUAGUCGCAAG [Fam3.1 aminoacylation ribozyme variant]”, the self-aminoacylation in the series on biotinyl-Leu-oxazolone is 1.83; with biotinyl-Trp-oxazolone, 9.92; in the series on biotinyl-Val-oxazolone, 1.81; with biotinyl-Met-oxazolone, 2.17; in the series with biotinyl-Phe-oxazolone it was 32.7; in the series with biotinyl-Ile-oxazolone, 2.01.

With “AUUCACGUAGGUCAUCGCGUG [Fam2.2 aminoacylation ribozyme variant]”, the self-aminoacylation in the series with biotinyl-Leu-oxazolone was determined as 15.8; in the series on biotinyl-Trp-oxazolone, 11.1; in the series on biotinyl-Val-oxazolone it was 9.95; with biotinyl-Met-oxazolone it was 16; in the series on biotinyl-Phe-oxazolone, 119; in the series on biotinyl-Ile-oxazolone, 7.52.

Consider “AUUACCCUGGUCCACGAGUGA [Fam2.1 aminoacylation ribozyme variant]”, for which the self-aminoacylation with biotinyl-Leu-oxazolone was 10.7; in the series with biotinyl-Trp-oxazolone it was 10.5; in the series on biotinyl-Val-oxazolone, 4.95; in the series with biotinyl-Met-oxazolone, 9.99; in the series on biotinyl-Phe-oxazolone it was 61.1; with biotinyl-Ile-oxazolone, 5.37.

Consider “AUUACCCUGGCAAUCGAGUGA [Fam2.1 aminoacylation ribozyme variant]”, for which the self-aminoacylation with biotinyl-Leu-oxazolone is 5.38; with biotinyl-Trp-oxazolone it was 5.92; in the series with biotinyl-Val-oxazolone, 3.02; in the series on biotinyl-Met-oxazolone, 4.83; in the series on biotinyl-Phe-oxazolone, 28.2; with biotinyl-Ile-oxazolone it was 2.78.

With “CUAUUUCAAACAGUCGGUCUG [Fam1A.1 aminoacylation ribozyme variant]”, the self-aminoacylation in the series with biotinyl-Leu-oxazolone is 0.843; in the series on biotinyl-Trp-oxazolone, 0.682; in the series with biotinyl-Val-oxazolone, 0.8; in the series on biotinyl-Met-oxazolone it was 0.859; with biotinyl-Phe-oxazolone it was 0.588; with biotinyl-Ile-oxazolone, 0.827.

As for “CUACUUCUAACAAUCGGUCUU [Fam1A.1 aminoacylation ribozyme variant]”, the self-aminoacylation is 0.753 with biotinyl-Leu-oxazolone; 0.465 in the series on biotinyl-Trp-oxazolone; 0.871 in the series on biotinyl-Val-oxazolone; 0.701 in the series with biotinyl-Met-oxazolone; 0.801 in the series on biotinyl-Phe-oxazolone; 0.748 in the series on biotinyl-Ile-oxazolone.

As for “AUUACCCCGGUCAUGGAGUGA [Fam2.1 aminoacylation ribozyme variant]”, the self-aminoacylation is 5.28 in the series with biotinyl-Leu-oxazolone; 6.2 with biotinyl-Trp-oxazolone; 3.07 in the series with biotinyl-Val-oxazolone; 4.97 in the series on biotinyl-Met-oxazolone; 22.6 with biotinyl-Phe-oxazolone; 2.92 in the series with biotinyl-Ile-oxazolone.

For “AUUCACCUAGGUCAUCGGGGA [Fam2.2 aminoacylation ribozyme variant]”, the self-aminoacylation with biotinyl-Leu-oxazolone came to 26; in the series with biotinyl-Trp-oxazolone it was 15.5; in the series on biotinyl-Val-oxazolone it was 9.77; in the series on biotinyl-Met-oxazolone, 19.8; in the series with biotinyl-Phe-oxazolone, 123; in the series on biotinyl-Ile-oxazolone, 11.4.

As for “CAACUUCAAACAAUCGGUCUU [Fam1A.1 aminoacylation ribozyme variant]”, the self-aminoacylation turned out to be 2.43 in the series with biotinyl-Leu-oxazolone; 27.7 in the series on biotinyl-Trp-oxazolone; 1.5 with biotinyl-Val-oxazolone; 1.53 in the series with biotinyl-Met-oxazolone; 45.8 in the series on biotinyl-Phe-oxazolone; 1.59 with biotinyl-Ile-oxazolone.

On to “AUUCCCCUGGGCAUCGAGUGA [Fam2.1 aminoacylation ribozyme variant]”, for which the self-aminoacylation was found to be 11.1 in the series on biotinyl-Leu-oxazolone; 11.6 in the series on biotinyl-Trp-oxazolone; 5.1 in the series on biotinyl-Val-oxazolone; 10.8 with biotinyl-Met-oxazolone; 65.9 in the series with biotinyl-Phe-oxazolone; 5.22 with biotinyl-Ile-oxazolone.

With “AUUGACCUAGGUCAUCGGUUG [Fam2.2 aminoacylation ribozyme variant]”, the self-aminoacylation amounted to 1.41 with biotinyl-Leu-oxazolone; 1.65 in the series with biotinyl-Trp-oxazolone; 1.29 in the series with biotinyl-Val-oxazolone; 1.08 in the series on biotinyl-Met-oxazolone; 3.99 in the series on biotinyl-Phe-oxazolone; 1.34 in the series with biotinyl-Ile-oxazolone.

For “CUACUUCAAAAAAUCGGACUG [Fam1A.1 aminoacylation ribozyme variant]”, the self-aminoacylation in the series with biotinyl-Leu-oxazolone turned out to be 0.733; in the series with biotinyl-Trp-oxazolone, 2.3; in the series with biotinyl-Val-oxazolone, 0.539; in the series on biotinyl-Met-oxazolone it was 0.652; in the series with biotinyl-Phe-oxazolone it was 3.47; in the series on biotinyl-Ile-oxazolone, 0.922.

For the sequence “AUUCCCCUGGUCAUGGAGUGA [Fam2.1 aminoacylation ribozyme variant]”, the self-aminoacylation with biotinyl-Leu-oxazolone came out at 3.99; with biotinyl-Trp-oxazolone, 4.27; in the series on biotinyl-Val-oxazolone, 3.12; in the series with biotinyl-Met-oxazolone it was 3.85; in the series on biotinyl-Phe-oxazolone, 16.3; with biotinyl-Ile-oxazolone, 2.92.

On to “AUCCACCUAGGUCAUCGGGGG [Fam2.2 aminoacylation ribozyme variant]”, for which the self-aminoacylation in the series with biotinyl-Leu-oxazolone stood at 5.3; in the series with biotinyl-Trp-oxazolone it was 4.13; with biotinyl-Val-oxazolone, 2.77; in the series on biotinyl-Met-oxazolone, 3.97; in the series with biotinyl-Phe-oxazolone it was 2.86; in the series on biotinyl-Ile-oxazolone, 4.14.

“AAGUUUUCUAAUAGUCGCGAG [Fam3.1 aminoacylation ribozyme variant]”: the self-aminoacylation with biotinyl-Leu-oxazolone is 1.88; in the series with biotinyl-Trp-oxazolone, 2.99; with biotinyl-Val-oxazolone, 1.71; with biotinyl-Met-oxazolone it was 1.84; in the series on biotinyl-Phe-oxazolone it was 5.94; in the series with biotinyl-Ile-oxazolone, 2.02.
